According to publication PMC9628860, “Electron Transfer to Hydroxylase through Component Interactions in Soluble Methane Monooxygenase” (Journal of Microbiology and Biotechnology, 2022):
Counter-ions that a name gives are not always drawn.

What was measured:
MMOR [1] = molecular target: T1, MMOR (Methylosinus sporium, UniProt Q27RN2, Y95A); experiment: UV-visible spectrum of purified protein, cofactor content; settings: FAD as purified, calibrated for [2Fe-2S] absorption; FAD/NADH-binding domain
T1 construct: gene mmoC; full-length reductase (39 kDa), recombinant in E. coli BL21(DE3) from pET30a(+); ferredoxin domain = residues 1-98
T1 sequence (Q27RN2 entry or part of it Y95A): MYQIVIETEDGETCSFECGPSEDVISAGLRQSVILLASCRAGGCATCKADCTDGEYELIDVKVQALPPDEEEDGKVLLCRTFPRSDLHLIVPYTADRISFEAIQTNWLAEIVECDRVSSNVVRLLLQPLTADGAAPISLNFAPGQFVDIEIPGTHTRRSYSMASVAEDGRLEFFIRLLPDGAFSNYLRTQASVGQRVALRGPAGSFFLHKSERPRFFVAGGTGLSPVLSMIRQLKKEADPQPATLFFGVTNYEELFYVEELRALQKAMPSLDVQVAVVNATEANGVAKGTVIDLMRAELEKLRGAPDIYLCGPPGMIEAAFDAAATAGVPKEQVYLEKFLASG

MMOR [2] = molecular target: T2, MMOR (Methylosinus sporium, UniProt Q27RN2, Y93A); experiment: as above; settings: FAD as purified, calibrated for [2Fe-2S] absorption; FAD/NADH-binding domain; stoichiometry, not an affinity; extra FAD said to be non-specific
T2 construct: gene mmoC; full-length reductase (39 kDa), recombinant in E. coli BL21(DE3) from pET30a(+); ferredoxin domain = residues 1-98
T2 sequence (Q27RN2 entry or part of it Y93A): as the sequence (Q27RN2 entry or part of it Y95A) above, with Y93A, A95Y counted along it

[3] = molecular target: T3, sMMO (MMOH + MMOB + MMOR) (Methylosinus sporium, UniProt Q27RN2, Y93A); experiment: NADH consumption at […] nm; type: biochemical; settings: turnover; propylene and O2 as co-substrates; 1 uM MMOH, 2 equiv. MMOB, 0.5 or 1.0 equiv. MMOR; 25 mM phosphate, 50 mM NaCl, pH 7.0
T3 construct: gene mmoC; recombinant MMOB and MMOR (39 kDa) from E. coli; with Methane monooxygenase component A alpha chain; Methane monooxygenase component A beta chain; Methane monooxygenase component A gamma chain; Methane monooxygenase regulatory protein B
T3 sequence (Q27RN2 entry or part of it Y93A): as the sequence (Q27RN2 entry or part of it Y95A) above, with Y93A, A95Y counted along it
T3 sequence (Q27RN4 entry or part of it, stated change not applied, further chain): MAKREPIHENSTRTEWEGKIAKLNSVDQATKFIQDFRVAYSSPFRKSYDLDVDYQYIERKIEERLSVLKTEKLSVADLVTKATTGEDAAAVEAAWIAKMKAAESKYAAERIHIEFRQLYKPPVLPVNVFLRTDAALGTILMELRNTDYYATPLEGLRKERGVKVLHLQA
T3 sequence (Q27RN6 entry or part of it, stated change not applied, further chain): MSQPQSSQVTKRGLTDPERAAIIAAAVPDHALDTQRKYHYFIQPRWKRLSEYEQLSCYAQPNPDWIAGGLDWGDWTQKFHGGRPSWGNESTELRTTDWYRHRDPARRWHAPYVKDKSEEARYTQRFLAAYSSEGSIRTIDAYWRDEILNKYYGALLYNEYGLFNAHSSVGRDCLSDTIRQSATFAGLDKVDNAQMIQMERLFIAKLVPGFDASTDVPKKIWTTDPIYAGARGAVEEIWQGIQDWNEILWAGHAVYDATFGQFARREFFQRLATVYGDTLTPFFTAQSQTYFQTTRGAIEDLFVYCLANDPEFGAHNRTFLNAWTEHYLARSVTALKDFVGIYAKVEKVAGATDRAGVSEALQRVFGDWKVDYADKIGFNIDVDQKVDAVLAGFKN

[4] = molecular target: Hydroxylase (MMOH) of soluble methane monooxygenase (sMMO) from Methylosinus sporium 5 (Methylosinus sporium 5); experiment: other fluorescence titration; tryptophan quenching (Ex 282 nm, Em 336 nm); MMOH 0.32 uM in the cuvette, MMORs added from 0 to 110 equivalents; 25 mM MOPS, 50 mM NaCl, 1 mM DTT, pH 6.5; fitted with a 1:2 binding model

Row | FAD/protein (MMOR [2]) [FAD/protein] | Kd1 (first site, 1:2 binding model) [4] [µM] | Kd2 (second site, 1:2 binding model) [4] [µM] | Compound | FADs per purified reductase (MMOR [1]) | NADH consumption at 340 nm [3]
1 | 2.0 | – | – | Cc1cc2nc3c(=O)[nH]c(=O)nc-3n(C[C@H](O)[C@H](O)[C@H](O)COP(=O)(O)OP(=O)(O)OC[C@H]3O[C@@H](n4cnc5c(N)ncnc54)[C@H](O)[C@@H]3O)c2cc1C [flavin adenine dinucleotide] | two irons and two FADs per purified reductase | –
2 | – | – | – | NC(=O)C1=CN([C@@H]2O[C@H](COP(=O)(O)OP(=O)(O)OC[C@H]3O[C@@H](n4cnc5c(N)ncnc54)[C@H](O)[C@@H]3O)[C@@H](O)[C@H]2O)C=CC1 [β-nicotinamide adenine dinucleotide, reduced disodium salt hydrate] | – | The activity of MMOR-Y93A was dramatically reduced
3 | – | 0.15 | 17 | MMOR-Y93A (enzyme) | – | –
4 | – | 0.21 | 7.97 | MMOR-Y95A (enzyme) | – | –
